Target: His6-tagged NBDY (human)
Test: SPR + ITC

purified EDC4 WD40 domain (residues 72-528) (from UniProt Q6P2E9 72-528) (domain or fragment)
Kd: 1000 nM

— article PMC7682656
